The values that follow come from US20260070978A1 (LENTIGEN TECHNOLOGY, published 2026).

Positions count from the first letter of the chain named.

For one assay, the target named is T1, recombinant human CD19 (human, UniProt P15391 20-291, limits assumed, fluorescent label, kind and site not stated).
T1 construct: soluble labeled antigen titrated on yeast; sorting steps used CD19-Fc, so the labeled antigen may be the Fc fusion; also called labeled CD19; fluorescently tagged antigen
T1 sequence (looked up): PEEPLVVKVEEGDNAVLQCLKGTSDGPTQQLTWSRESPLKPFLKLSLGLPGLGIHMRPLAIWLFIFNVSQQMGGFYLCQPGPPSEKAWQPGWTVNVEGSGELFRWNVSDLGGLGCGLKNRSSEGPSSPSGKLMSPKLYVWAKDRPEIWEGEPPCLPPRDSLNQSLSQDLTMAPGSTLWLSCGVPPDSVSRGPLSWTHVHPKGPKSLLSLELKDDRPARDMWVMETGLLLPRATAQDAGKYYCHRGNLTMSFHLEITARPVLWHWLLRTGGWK
The experiment in a line: flow cytometry of yeast-displayed scFv with decreasing amounts of labeled CD19. The method, then: To increase the affinity of m19217, a yeast-display m19217 mutant scFv library was created by using error-prone PCR to create random point mutations in scFv gene sequences. After electroporation, the resulting mutant library was then grown overnight at 30° C. for 16 hours in SDCAA medium and then switched into SGCAA medium at 30° C. for another 16 hours. The mutant library was then sorted through MACS (immunomagentic column, Miltenyi Biotec) with CD19-Fc as the capture antigen to downsize the library and to increase the population of mutants that could bind to CD19-Fc. The strongest binders were then selected by double staining the pools with Anti-c-Myc-Alexa 488 and CD19-Fc/Anti-Hu-Fc and selecting for the binders that had the highest binding affinities as well as c-Myc expression levels. This process was then repeated two more times, until flow cytometry of yeast particles with fluorescently tagged antigen yielded average binding affinities of the mutant pools that were increased over the starting construct. Binding affinities were estimated by flow cytometry of yeast pools using decreasing amounts of labeled CD19.
Background: In flow cytometry, cells or beads pass a laser one at a time.

The next assay concerns the target T2, recombinant human CD22 (human, UniProt P20273 20-687, limits assumed, fluorescent label, kind and site not stated).
T2 construct: soluble labeled antigen titrated on yeast; sorting steps used CD22-Fc, so the labeled antigen may be the Fc fusion; also called labeled CD22; fluorescently tagged antigen
T2 sequence (looked up): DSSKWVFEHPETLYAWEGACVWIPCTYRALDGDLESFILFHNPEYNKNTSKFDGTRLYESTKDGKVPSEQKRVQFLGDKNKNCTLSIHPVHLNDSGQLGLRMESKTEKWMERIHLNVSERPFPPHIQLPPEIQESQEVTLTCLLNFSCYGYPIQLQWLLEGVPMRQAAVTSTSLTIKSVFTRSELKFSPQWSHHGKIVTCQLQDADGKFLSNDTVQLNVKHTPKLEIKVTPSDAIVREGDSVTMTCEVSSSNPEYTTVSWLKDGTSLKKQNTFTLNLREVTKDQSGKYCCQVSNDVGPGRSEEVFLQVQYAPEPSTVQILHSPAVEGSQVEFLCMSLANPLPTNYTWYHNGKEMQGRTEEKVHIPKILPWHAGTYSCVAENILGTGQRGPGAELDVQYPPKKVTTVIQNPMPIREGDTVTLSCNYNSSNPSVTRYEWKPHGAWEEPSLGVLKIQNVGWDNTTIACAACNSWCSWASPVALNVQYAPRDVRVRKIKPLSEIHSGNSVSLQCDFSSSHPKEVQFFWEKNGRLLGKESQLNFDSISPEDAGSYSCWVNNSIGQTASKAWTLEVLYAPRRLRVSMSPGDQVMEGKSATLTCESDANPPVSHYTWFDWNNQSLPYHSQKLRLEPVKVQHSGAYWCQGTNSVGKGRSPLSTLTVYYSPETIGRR
Nature of the assay: flow cytometry of yeast-displayed scFv with decreasing amounts of labeled CD22.

B1: human anti-CD19 ScFv binder M19217-1 (scFv)
scFv: EVQLVQSGAEVKKPGASVKVSCKASGYTFTSYYMHWVRQAPGQGLEWMGLINPSGGSTSYAQKFQGRVTMTRDTSTSTVYMELSSLRSEDTAVYYCARSDRGITATDAFDIWGQGTMVTVSSGGGGSGGGGSGGGGSQSVLTQPPSVSVAPGRMAKITCGGSDIGNKNVHWYQQKPGQAPVLVVYDDYDRPSGIPERFSGSNSGDAATLTISTVEVGDEADYFCQVWDGSGDPYWMFGGGTQLTVL
notes: also called LTG2065
Usually EC50 stands for the concentration giving half of the maximal effect. For B1, the EC50 with recombinant human CD19 is less than 0.01 µg/mL.

B2: human anti-CD22 ScFv binder 16P17 (scFv, V domains shown)
VH: QVQLQQSGPGLVKHSQTLSLTCAISGDSVSSNSAAWNWIRQSPSRGLEWLGRTYYRSKWYNDYAVSVKSRITINPDTSKNQFSLQLNSVTPEDTAVYYCAQEVEPHDAFDIWGQGTMVTVSS
VL: DIQMTQSPSSVYASVGDKVTITCRASQDVSGWLAWYQQKPGLAPQLLISGASTLQGEVPSRFSGSGSGTDFTLTISSLQPEDFATYYCQQAKYFPYTFGQGTKLEIK
B2: the 50% effective concentration (EC50) with recombinant human CD22 was less than 0.01 µg/mL.

B3: human anti-CD19 ScFv binder M19217 (scFv)
chain: EVQLVQSGAEVKKPGASVKVSCKASGYTFTSYYMHWVRQAPGQGLEWMGIINPSGGSTSYAQKFQGRVTMTRDTSTSTVYMELSSLRSEDTAVYYCARSDRGITATDAFDIWGQGTMVTVSSGGGGSGGGGSGGGGSQSVLTQPPSVSVAPGQTAKITCGGSDIGNKNVHWYQQKPGQAPVLVVYDDYDRPSGIPERFSGSNSGDAATLTISTVEVGDEADYFCQVWDSSGDPYWVFGGGTQLTVLG
With B3, the 50% effective concentration (EC50) in the assay with recombinant human CD19 stood at 0.5 µg/mL.

B4: human anti-CD19 ScFv binder M19217-23 (scFv)
chain: B3 chain with S31G, M48I, I50L, A61E, T69A, N166D, S229G, S230I
As to B4, the concentration giving a half-maximal response (EC50) in the assay with recombinant human CD19 was less than 0.01 µg/mL.

B5: human anti-CD19 ScFv binder M19217-2 (scFv)
chain: B3 chain with L45F, I50L, G56S, S85N, S148P, T158I, S229G
As to B5, in the assay with recombinant human CD19, the EC50 is less than 0.01 µg/mL.

B6: human anti-CD19 ScFv binder M19217-38 (scFv)
chain: B3 chain with K13R, Q43R, I50L, K63E, T74M, T104S, T154M, D189N, S229G, V245D
In the case of B6, the EC50 with recombinant human CD19 was less than 0.01 µg/mL.

B7: human anti-CD19 ScFv binder M19217-29 (scFv)
chain: B3 chain with I50M, V169A, P195S, S229G, Y234F
For B7, the 50% effective concentration (EC50) with recombinant human CD19 is less than 0.01 µg/mL.

B8: human anti-CD19 ScFv binder M19217-40 (scFv)
chain: B3 chain with K13R, E46V, I50L, I157T, F223V, S229G
Consider B8, for which the half-maximal effective concentration (EC50) with recombinant human CD19 was less than 0.01 µg/mL.

B9: human anti-CD19 ScFv binder M19217-7 (scFv)
chain: B3 chain with K12N, I50M, A105S, V149L, D189N, A206S, S229G
Take B9: the EC50 with recombinant human CD19 was less than 0.01 µg/mL.
